Among the data in US20090029924A1 are Ki values, retold here.

Chain of Recombinant human furin (human) (P09958 108-714 limits assumed): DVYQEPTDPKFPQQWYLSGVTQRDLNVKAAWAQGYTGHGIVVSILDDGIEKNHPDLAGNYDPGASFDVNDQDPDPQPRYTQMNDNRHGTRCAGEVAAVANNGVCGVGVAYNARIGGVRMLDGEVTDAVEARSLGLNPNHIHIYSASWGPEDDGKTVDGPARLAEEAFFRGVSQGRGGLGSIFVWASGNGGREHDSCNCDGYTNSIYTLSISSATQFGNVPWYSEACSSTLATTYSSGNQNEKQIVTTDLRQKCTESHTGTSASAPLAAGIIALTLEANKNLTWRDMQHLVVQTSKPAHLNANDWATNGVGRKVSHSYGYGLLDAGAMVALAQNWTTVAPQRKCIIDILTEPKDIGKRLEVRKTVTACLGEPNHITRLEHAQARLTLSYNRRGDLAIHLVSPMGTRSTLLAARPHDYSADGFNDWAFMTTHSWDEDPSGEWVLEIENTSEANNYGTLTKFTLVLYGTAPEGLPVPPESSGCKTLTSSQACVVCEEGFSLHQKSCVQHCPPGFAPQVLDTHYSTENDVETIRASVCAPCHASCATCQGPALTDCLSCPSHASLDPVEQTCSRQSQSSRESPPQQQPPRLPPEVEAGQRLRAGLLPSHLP

This assay concerns the target Recombinant human furin (human) (UniProt P09958). As to the kind of experiment: furin, Pyr-RTKR-AMC cleavage.
With TPQR1RRRKKRG (peptide), the Ki is over 100 nM. Under TPQR2RRRKKRG (peptide) stands over 100 nM; under TPQR3RRRKKRG (peptide), over 100 nM.

On to TPQR4RRRKKRG (peptide), for which the Ki is over 100 nM. In the case of TPQR5RRRKKRG (peptide) it was over 100 nM; in that of TPQR6RRRKKRG (peptide), over 100 nM; in that of TPQR7RRRKKRG (peptide), over 100 nM.

On to TPQR8RRRKKRG (peptide), for which the Ki is over 100 nM. TPQReRRRKKRG (peptide): the Ki is over 100 nM.

Turning to TPQRkRRRKKRG (peptide), the Ki was over 100 nM. Consider TPQRrRRRKKRG (peptide), for which the Ki is over 100 nM.
